Test results from article PMC3217464 (Molecular cell, 2009).

Each binder was assayed against Flag-tagged full length MED1 (UniProt Q15648 1-1581) (assay: immobilized-template protein recruitment assay).
Flag-tagged full length MED1, sequence (Q15648 whole entry): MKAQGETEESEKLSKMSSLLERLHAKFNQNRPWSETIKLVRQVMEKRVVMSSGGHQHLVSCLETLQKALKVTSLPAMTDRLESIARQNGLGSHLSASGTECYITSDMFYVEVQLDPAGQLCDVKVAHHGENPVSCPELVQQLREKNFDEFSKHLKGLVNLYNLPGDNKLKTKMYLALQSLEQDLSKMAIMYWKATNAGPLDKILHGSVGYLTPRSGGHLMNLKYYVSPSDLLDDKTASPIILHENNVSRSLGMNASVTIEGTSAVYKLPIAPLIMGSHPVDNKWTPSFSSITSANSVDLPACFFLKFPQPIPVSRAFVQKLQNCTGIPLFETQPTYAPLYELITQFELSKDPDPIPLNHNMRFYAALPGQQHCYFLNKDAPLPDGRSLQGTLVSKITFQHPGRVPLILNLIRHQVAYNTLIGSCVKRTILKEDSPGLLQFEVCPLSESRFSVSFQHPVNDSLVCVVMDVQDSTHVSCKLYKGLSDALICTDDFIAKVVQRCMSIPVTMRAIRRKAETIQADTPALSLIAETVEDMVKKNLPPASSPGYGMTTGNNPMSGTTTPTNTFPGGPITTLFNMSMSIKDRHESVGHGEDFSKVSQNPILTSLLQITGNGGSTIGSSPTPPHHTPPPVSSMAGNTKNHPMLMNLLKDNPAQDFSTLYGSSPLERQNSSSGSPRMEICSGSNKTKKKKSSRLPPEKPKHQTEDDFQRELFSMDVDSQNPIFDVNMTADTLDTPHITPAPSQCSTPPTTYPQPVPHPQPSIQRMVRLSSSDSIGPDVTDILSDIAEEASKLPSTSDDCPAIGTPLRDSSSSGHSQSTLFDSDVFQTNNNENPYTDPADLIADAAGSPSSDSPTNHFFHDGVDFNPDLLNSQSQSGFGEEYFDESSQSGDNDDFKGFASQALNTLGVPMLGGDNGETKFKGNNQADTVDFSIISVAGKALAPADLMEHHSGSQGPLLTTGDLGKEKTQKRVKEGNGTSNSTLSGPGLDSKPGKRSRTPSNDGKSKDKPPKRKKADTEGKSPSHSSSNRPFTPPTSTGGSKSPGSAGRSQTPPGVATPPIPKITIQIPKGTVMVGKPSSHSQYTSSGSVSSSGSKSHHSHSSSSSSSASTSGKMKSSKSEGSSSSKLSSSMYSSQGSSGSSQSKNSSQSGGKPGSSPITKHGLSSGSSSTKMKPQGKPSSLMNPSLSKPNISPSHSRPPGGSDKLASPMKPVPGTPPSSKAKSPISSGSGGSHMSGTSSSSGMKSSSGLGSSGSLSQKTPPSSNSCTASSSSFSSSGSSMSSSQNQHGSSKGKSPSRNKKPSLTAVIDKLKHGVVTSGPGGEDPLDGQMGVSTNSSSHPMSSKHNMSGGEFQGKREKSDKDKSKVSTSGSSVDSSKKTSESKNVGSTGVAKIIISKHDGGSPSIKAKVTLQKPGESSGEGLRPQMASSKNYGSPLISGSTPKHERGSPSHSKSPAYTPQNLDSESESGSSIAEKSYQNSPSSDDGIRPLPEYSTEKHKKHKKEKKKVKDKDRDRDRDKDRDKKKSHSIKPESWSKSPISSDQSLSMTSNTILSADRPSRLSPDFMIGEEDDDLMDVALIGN

binding result	Binder
binds	His-tagged PGC-1α (334–797) (domain or fragment, UniProt O70343 334-797, looked up) ECSGTQGSHSTKKGPEQSELYAQLSKSSGLSRGHEERKTKRPSLRLFGDHDYCQSLNSKTDILINISQELQDSRQLDFKDASCDWQGHICSSTDSGQCYLRETLEASKQVSPCSTRKQLQDQEIRAELNKHFGHPCQAVFDDKSDKTSELRDGDFSNEQFSKLPVFINSGLAMDGLFDDSEDESDKLSYPWDGTQPYSLFDVSPSCSSFNSPCRDSVSPPKSLFSQRPQRMRSRSRSFSRHRSCSRSPYSRSRSRSPGSRSSSRSCYYYESSHYRHRTHRNSPLYVRSRSRSPYSRRPRYDSYEAYEHERLKRDEYRKEHEKRESERAKQRERQKQKAIEERRVIYVGKIRPDTTRTELRDRFEVFGEIEECTVNLRDDGDSYGFITYRYTCDAFAALENGYTLRRSNETDFELYFCGRKQFFKSNYADLDTNSDDFDPASTKSKYDSLDFDSLLKEAQRSLRR
binds	His-tagged full length PGC-1α (natural protein, UniProt O70343 1-797, looked up) MAWDMCSQDSVWSDIECAALVGEDQPLCPDLPELDLSELDVNDLDTDSFLGGLKWCSDQSEIISNQYNNEPANIFEKIDEENEANLLAVLTETLDSLPVDEDGLPSFDALTDGAVTTDNEASPSSMPDGTPPPQEAEEPSLLKKLLLAPANTQLSYNECSGLSTQNHAANHTHRIRTNPAIVKTENSWSNKAKSICQQQKPQRRPCSELLKYLTTNDDPPHTKPTENRNSSRDKCASKKKSHTQPQSQHAQAKPTTLSLPLTPESPNDPKGSPFENKTIERTLSVELSGTAGLTPPTTPPHKANQDNPFKASPKLKPSCKTVVPPPTKRARYSECSGTQGSHSTKKGPEQSELYAQLSKSSGLSRGHEERKTKRPSLRLFGDHDYCQSLNSKTDILINISQELQDSRQLDFKDASCDWQGHICSSTDSGQCYLRETLEASKQVSPCSTRKQLQDQEIRAELNKHFGHPCQAVFDDKSDKTSELRDGDFSNEQFSKLPVFINSGLAMDGLFDDSEDESDKLSYPWDGTQPYSLFDVSPSCSSFNSPCRDSVSPPKSLFSQRPQRMRSRSRSFSRHRSCSRSPYSRSRSRSPGSRSSSRSCYYYESSHYRHRTHRNSPLYVRSRSRSPYSRRPRYDSYEAYEHERLKRDEYRKEHEKRESERAKQRERQKQKAIEERRVIYVGKIRPDTTRTELRDRFEVFGEIEECTVNLRDDGDSYGFITYRYTCDAFAALENGYTLRRSNETDFELYFCGRKQFFKSNYADLDTNSDDFDPASTKSKYDSLDFDSLLKEAQRSLRR
binds	His-tagged PGC-1α (501–797) (domain or fragment, UniProt O70343 501-797, looked up) NSGLAMDGLFDDSEDESDKLSYPWDGTQPYSLFDVSPSCSSFNSPCRDSVSPPKSLFSQRPQRMRSRSRSFSRHRSCSRSPYSRSRSRSPGSRSSSRSCYYYESSHYRHRTHRNSPLYVRSRSRSPYSRRPRYDSYEAYEHERLKRDEYRKEHEKRESERAKQRERQKQKAIEERRVIYVGKIRPDTTRTELRDRFEVFGEIEECTVNLRDDGDSYGFITYRYTCDAFAALENGYTLRRSNETDFELYFCGRKQFFKSNYADLDTNSDDFDPASTKSKYDSLDFDSLLKEAQRSLRR
